Assay results: publication PMC3791464 (eLife, 2013)

B1: GFP–Orc6 wild type (fly transgene) [Drosophila melanogaster] / Drosophila Orc2, endogenous in fly ovaries [Drosophila (endogenous in fly ovaries)] (parent)
chain 1: MTTLIEQLITKMGLREEPNVLEKTTELVRLLELRSTNVPLQINEYGKIVLCADLASCMIGIAFDKEQALKLSGLRKSQYLNNKRMFEKLLDLNKLASVNDICVQLGLNEVARKAEELMTLFKGVAATEDMGTDTSHPQYATMAVFQACRLLKKKVSKSKLMPFSNLRPSQFQLLEQQWERMIAKHHKESKVPSSTDMEGKLKENQNENIKGHEAKKAHKPPPEDYEIWKARMLAKAQAKLKELEASQSHMDSQLLEA
chain 2: MSASNKGGYKTPRKENLMSIENLTNSEEESEDLNTAMVGNAVESQPKVTSRRSTRRPSPTKKYQAYQKESNGKGQEERIVVNYVEMSDERSSDAEDQEEEESIEESENAARPAAKDLHLIQSEYNVAGTSMFGFNTPKKRDAMALAALNATPCTPKTPKTPRLGVKTPDTKRKKSMDQPKTPAHVRTRVKKQIAKIVADSDEDFSGDESDFRPSDEESSSSSSSSDAGNSSDNDAADDEPKTPSRARRAIVVPVLPKTPSAARLRQSARAKKSNEFVPESDGYFHSHASSKILTSDHTLDRLKNPRLAADRVFSLLSEIKTSAEHEGSINAIMEEYRSYFPKWMCILNEGFNILLYGLGSKHQLLQSFHREVLHKQTVLVVNGFFPSLTIKDMLDSITSDILDAGISPANPHEAVDMIEEEFALIPETHLFLIVHNLDGAMLRNVKAQAILSRLARIPNIHLLASIDHINTPLLWDQGKLCSFNFSWWDCTTMLPYTNETAFENSLLVQNSGELALSSMRSVFSSLTTNSRGIYMLIVKYQLKNKGNATYQGMPFRDLYSSCREAFLVSSDLALRAQLTEFLDHKLVKSKRSVDGSEQLTIPIDGALLQQFLEEQEKK

Variants of: B1
Experiment: GFP fluorescence of anti-Orc2 immunoprecipitates
Conditions: with Drosophila Orc2, endogenous in fly ovaries [Drosophila (endogenous in fly ovaries)]; fly ovary extracts; three independent experiments; read off a plot

Variant | response (arbitrary units)
chain 1 MTTLIEQLITKMGLREEPNVLEKTTELVRLLELRSTNVPLQINEYGKIVLCADLASCMIGIAFDKEQALKLSGLRKSQYLNNKRMFEKLLDLNKLASVNDICVQLGLNEVARKAEELMTLFKGVAATEDMGTDTSHPQYATMAVFQACRLLKKKVSKSKLMPFSNLRPSQFQLLEQQWERMIAKHHKESKVPSSTDMEGKLKENQNENIKGHEAKKAHKPPPEAAEIWKARMLAKAQAKLKELEASQSHMDSQLLEA [chain 1 D224A Y225A] | 550
chain 1 MTTLIEQLITKMGLREEPNVLEKTTELVRLLELRSTNVPLQINEYGKIVLCADLASCMIGIAFDKEQALKLSGLRKSQYLNNKRMFEKLLDLNKLASVNDICVQLGLNEVARKAEELMTLFKGVAATEDMGTDTSHPQYATMAVFQACRLLKKKVSKSKLMPFSNLRPSQFQLLEQQWERMIAKHHKESKVPSSTDMEGKLKENQNENIKGHEAKKAHKPPPEDYEIAAARMLAKAQAKLKELEASQSHMDSQLLEA [chain 1 W228A K229A] | 470
